From patent US20170008955A1 (CNJ, published 2017) come the findings set out here.

The target in assay [1] is T1, Aβ42 oligomers (UniProt P05067 672-713).
T1 construct: domain: Aβ42; immobilized preparation containing monomers, low and high molecular weight oligomers; also called Amyloid beta oligomers; Aβ oligomers
As to the kind of experiment: Biacore (SPR), Aβ oligomer preparation AβO1' (HQ AβO1'); upper end of the range. How it is done: (§1) Using a Biacore™ 3000, Aβ42 oligomers were immobilized (containing monomers, low and high molecular weight oligomers) and BSA (reference surface) on 4 separate flow cells of a biosensorchip. Murine 5E3 or humanized 5E3 IgG1, IgG2, and IgG4 were then diluted, sequentially injected over the different immobilized peptides and antibody binding monitored in real time. Binding data was collected by sequentially injecting buffer blanks, 1/10 dilutions of m5E3 or 1 uM dilutions of hu5E3 control over separate flow cells immobilized with BSA or Aβ42 oligomer on another biosensor chip at a flow rate of 10 μl/minute. Association was allowed for 200 seconds, followed by dissociation for 500 seconds and binding responses collected 10 seconds before the end of the […]. All binding responses were double-referenced by subtracting buffer blanks and BSA reference surface binding.
(§2) Results: As shown in FIG. 9A and FIG. 9B, the humanized 5E3 isotypes bound to the Aβ42 oligomer preparation. Affinity constants were determined for hu5E3 IgG1 Aβ42 oligomer preparations.
(In SPR one partner is held on a chip, and binding of the other changes the refractive index at the surface.)

Assay [2] concerns the target T1, Aβ42 oligomers. As to the kind of experiment: Biacore (SPR), Aβ oligomer preparation AβO1 (HQ AβO1); upper end of the range. How it is done: as §1, §2
In assay [3] the target is T2, cSNK:BSA conjugate (bovine, head-to-tail cyclized; conjugated to BSA carrier).
T2 construct: also called BSA-cSNK
As to the kind of experiment: BLI 2:1 fit, site 2 (kdis2); 25 nM row. How it is done: (§3) Biolayer interferometry (Octet […], ForteBio) was used to qualitatively/quantitatively assess the interactions between humanized versions of 5E3 and cSNK:BSA conjugate. […] MAbs were loaded onto sensors and then washed in PBST. Each sensor was associated with one of several cSNK:BSA standards (100 nM to 0 nM) and then washed in PBST. Data was processed statistically using ForteBio Data Analysis software to determine the strength of antigen-antibody binding (KD). For each mAb analyzed, a 2:1 model provided the “best fit”.

Assay [4] concerns the target T2, cSNK:BSA conjugate. As to the kind of experiment: BLI 2:1 fit, site 2 (KD2); 25 nM row. How it is done: as §3
Assay [5] has as its target T2, cSNK:BSA conjugate. As to the kind of experiment: BLI 2:1 fit, site 1; 3.13 nM row. The method, then:
as §3

The target of assay [6] is T1, Aβ42 oligomers. As to the kind of experiment: Biacore (SPR), Aβ oligomer preparation AβO1' (HQ AβO1'); lower end of the range. How it is done: as §1, §2
The target in assay [7] is T1, Aβ42 oligomers. As to the kind of experiment: Biacore (SPR), Aβ oligomer preparation AβO1 (HQ AβO1); lower end of the range. The method, then: as §1, §2
Assay [8] concerns the target T2, cSNK:BSA conjugate. As to the kind of experiment: BLI 2:1 fit, site 1; 12.5 nM row. The method, then: as §3
Assay [9] deals with T2, cSNK:BSA conjugate. As to the kind of experiment: BLI 2:1 fit, site 2 (kon2); 50 nM row. How it is done: as §3
Assay [10] has as its target T2, cSNK:BSA conjugate. As to the kind of experiment: BLI (Octet), KD1; unlabelled reference row, taken as hu5E3; unlabelled reference row at the top of the table. (BLI is a label-free optical method that tracks binding on a fibre tip over time.)
Assay [11] concerns the target T2, cSNK:BSA conjugate. As to the kind of experiment: BLI 2:1 fit, site 2 (KD2); 100 nM row. The method, then:
as §3

For assay [12], the target named is T3, Ovalbumin (UniProt P01012 2-386).
T3 sequence (looked up): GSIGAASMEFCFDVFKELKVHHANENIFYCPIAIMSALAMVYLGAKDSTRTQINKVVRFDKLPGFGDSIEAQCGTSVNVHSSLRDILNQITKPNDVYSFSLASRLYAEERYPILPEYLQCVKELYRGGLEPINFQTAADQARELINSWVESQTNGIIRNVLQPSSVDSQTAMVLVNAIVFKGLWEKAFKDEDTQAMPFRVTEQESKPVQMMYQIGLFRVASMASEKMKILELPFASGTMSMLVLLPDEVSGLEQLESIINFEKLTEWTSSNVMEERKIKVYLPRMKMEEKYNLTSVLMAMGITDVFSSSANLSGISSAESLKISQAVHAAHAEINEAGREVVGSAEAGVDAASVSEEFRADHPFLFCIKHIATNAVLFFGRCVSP
As to the kind of experiment: Western immunoblot, FIGS. 3A-D. The method, then: (§4) A 4-12% gradient SDS-PAGE gel was run with cSNK-BSA. The gel was then transferred to a nitrocellulose membrane. The next day the mAbs (1° Ab) were diluted to 2 μg/ml to 5 μg/ml depending on the antibody, and used to probe the membrane at room temperature (RT). The membranes were then probed with anti-mouse IgG-HRP (2° Ab).
For orientation: Immunoblotting shows a protein as a band on a membrane.

Assay [13] concerns the target T3, Ovalbumin. As to the kind of experiment: Western blot of BSA, BSA-cSNK and ovalbumin probed with m5E3. How it is done: as §4
Assay [14] concerns the target T2, cSNK:BSA conjugate. As to the kind of experiment: BLI (Octet RED96), 2:1 kinetics, KD2, summary table; KD2, summary table. The method, then:
as §3
Table 7 summarizes the affinity constants of humanized 5E3 IgG1, IgG2 and IgG4 constructs. The KD ranges were determined using 2:1 kinetics of binding of analyte (BSA-cSNK) in solution to two different binding sites on the surface (immobilized bivalent, monospecific 5E3) in comparison to murine 5E3 using biolayer interferometry (Octet RED96).

The target in assay [15] is T2, cSNK:BSA conjugate. As to the kind of experiment: BLI 2:1 fit, site 1 (KD1); 1.56 nM row. How it is done:
as §3

In assay [16] the target is T2, cSNK:BSA conjugate. As to the kind of experiment: BLI 2:1 fit, site 1 (KD1); 3.13 nM row. How it is done:
as §3

The target in assay [17] is T2, cSNK:BSA conjugate. As to the kind of experiment: BLI 2:1 fit, site 1 (KD1); 50 nM row. The method, then: as §3

Substitutions are numbered along the chain they refer to.

T1 sequence (P05067 672-713 limits assumed): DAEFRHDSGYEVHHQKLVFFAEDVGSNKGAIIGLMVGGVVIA
T2 sequence (P02769 25-607 limits assumed): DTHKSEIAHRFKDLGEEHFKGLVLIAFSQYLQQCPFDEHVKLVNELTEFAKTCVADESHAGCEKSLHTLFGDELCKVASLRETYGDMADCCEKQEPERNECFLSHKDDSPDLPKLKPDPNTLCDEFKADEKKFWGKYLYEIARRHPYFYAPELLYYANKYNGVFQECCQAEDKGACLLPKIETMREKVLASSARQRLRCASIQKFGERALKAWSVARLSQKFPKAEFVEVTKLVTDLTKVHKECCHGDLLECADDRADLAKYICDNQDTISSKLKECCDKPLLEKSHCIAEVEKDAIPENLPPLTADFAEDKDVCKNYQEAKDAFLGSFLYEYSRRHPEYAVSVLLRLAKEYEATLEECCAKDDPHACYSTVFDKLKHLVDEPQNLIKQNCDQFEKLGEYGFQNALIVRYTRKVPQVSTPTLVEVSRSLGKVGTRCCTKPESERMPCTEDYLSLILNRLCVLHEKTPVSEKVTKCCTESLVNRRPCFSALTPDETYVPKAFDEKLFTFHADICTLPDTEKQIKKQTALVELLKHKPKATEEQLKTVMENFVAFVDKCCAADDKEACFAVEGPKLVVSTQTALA

B1: hu5E3-IgG1 (antibody, V domains shown)
VH: QVQLQQSGPEVKKPGASVKISCKASGYIFTSYYIQWVIHAPGQGLEWIGWIYPGNVNTKYNEKFKGKATLTADKSSSTAYMELSSLTSEDTAVYFCARMDYEAHYWGQGTTVTVSS
VL: DIQMTQSPSSLSASVGDRVTITCRASQEISGYLTWLQQKPEGAIKRLIYAASTLDSGVPKRFSGSRSGSDYSLTISSLQPEDFATYNCLQYANYPRTFGGGTKLEIK
notes: human IgG1/kappa; also called humanized 5E3 IgG1; IHA variant
B1: the Kd is no more than 51.7 µM in the assay with Aβ42 oligomers [1]; no more than 3290 µM with Aβ42 oligomers [2]; 0.00182 µM in the assay with cSNK:BSA conjugate [4]; 0.000463 µM with cSNK:BSA conjugate [5]; no less than 34 µM with Aβ42 oligomers [6]; no less than 182 µM with Aβ42 oligomers [7]. The Kd came out at 0.000463 µM in the assay with cSNK:BSA conjugate [8] and 0.00627 µM with cSNK:BSA conjugate [10]. Further, the koff in the assay with cSNK:BSA conjugate [3] was found to be 0.012 s⁻¹; with cSNK:BSA conjugate [5] it was 0.000825 s⁻¹; with cSNK:BSA conjugate [8] it was 0.000825 s⁻¹. For the same molecule, the kon in the assay with cSNK:BSA conjugate [5] was 1.78e+06 M⁻¹ s⁻¹; with cSNK:BSA conjugate [8], 1.78e+06 M⁻¹ s⁻¹; in the assay with cSNK:BSA conjugate [9] it was 6.56e+06 M⁻¹ s⁻¹.

B2: hu5E3-IgG4 (antibody, V domains shown)
VH: B1 VH
VL: B1 VL
notes: human IgG4/kappa; also called humanized 5E3 IgG4
As to B2, the koff in the assay with cSNK:BSA conjugate [3] was determined as 0.0229 s⁻¹; with cSNK:BSA conjugate [5] it was 0.00055 s⁻¹; with cSNK:BSA conjugate [8], 0.00055 s⁻¹. Also, the Kd stood at 0.00304 µM in the assay with cSNK:BSA conjugate [11], 0.00304 µM with cSNK:BSA conjugate [4], 0.000633 µM with cSNK:BSA conjugate [5] and 0.000633 µM in the assay with cSNK:BSA conjugate [8]. Also, the kon stood at 868000 M⁻¹ s⁻¹ with cSNK:BSA conjugate [5], 868000 M⁻¹ s⁻¹ with cSNK:BSA conjugate [8] and 7.52e+06 M⁻¹ s⁻¹ with cSNK:BSA conjugate [9]. The binding result with Ovalbumin [12] is on record as “no binding”.

B3: murine monoclonal antibody 5E3 (antibody, V domains shown)
VH: B1 VH with V11L, K12V, K19R, A40R, E82Q, S85R, T91S, V112L
VL: B1 VL with V15L, D17E, T20S, I21L, E41D, A43T, Q79E, P80S, T85D
notes: mouse antibody of the 5E3 hybridoma; also called murine 5E3; m5E3
For the molecule B3, the binding result with Ovalbumin [13] is reported as “no binding”. For the same molecule, the values for the koff with cSNK:BSA conjugate [3], with cSNK:BSA conjugate [5] and in the assay with cSNK:BSA conjugate [8] were 0.0226 s⁻¹, 0.000428 s⁻¹ and 0.000428 s⁻¹, respectively. Also, the Kd in the assay with cSNK:BSA conjugate [11] is 0.00159 µM; in the assay with cSNK:BSA conjugate [4], 0.00159 µM; with cSNK:BSA conjugate [5] it was 0.00033 µM; in the assay with cSNK:BSA conjugate [8] it was 0.00033 µM; with cSNK:BSA conjugate [14], 0.00159 µM. Besides, the kon with cSNK:BSA conjugate [5] came out at 1.29e+06 M⁻¹ s⁻¹; with cSNK:BSA conjugate [8], 1.29e+06 M⁻¹ s⁻¹; in the assay with cSNK:BSA conjugate [9], 1.42e+07 M⁻¹ s⁻¹.

B4: hu5E3-IgG2 (antibody, V domains shown)
VH: B1 VH
VL: B1 VL
notes: human IgG2/kappa; also called humanized 5E3 IgG2
Consider B4, for which the koff was 0.0338 s⁻¹ in the assay with cSNK:BSA conjugate [3], 0.000762 s⁻¹ with cSNK:BSA conjugate [5] and 0.000762 s⁻¹ with cSNK:BSA conjugate [8]. For the same molecule, the Kd came to 0.00639 µM with cSNK:BSA conjugate [11], 0.00639 µM with cSNK:BSA conjugate [4], 0.00118 µM with cSNK:BSA conjugate [5] and 0.00118 µM with cSNK:BSA conjugate [8]. Moreover, the values for the kon with cSNK:BSA conjugate [5], with cSNK:BSA conjugate [8] and with cSNK:BSA conjugate [9] were 644000 M⁻¹ s⁻¹, 644000 M⁻¹ s⁻¹ and 5.28e+06 M⁻¹ s⁻¹, respectively. Moreover, the binding result with Ovalbumin [12] is given as “no binding”.

B5: rehu5E3-IgG4 (antibody, V domains shown)
VH: B1 VH with K12V, T87R, T91S, T111L
VL: B1 VL with V15L, I21L, G42K, S72T, T85D
notes: human IgG4/kappa; also called IgG4 rehu version
B5: the equilibrium dissociation constant (Kd) with cSNK:BSA conjugate [15] was determined as 0.000557 µM; with cSNK:BSA conjugate [11] it was 0.00394 µM; in the assay with cSNK:BSA conjugate [4] it was 0.00394 µM; with cSNK:BSA conjugate [16], 0.000557 µM; with cSNK:BSA conjugate [17], 0.000557 µM. In addition, the koff in the assay with cSNK:BSA conjugate [3] was 0.0175 s⁻¹; in the assay with cSNK:BSA conjugate [5] it was 0.000386 s⁻¹; in the assay with cSNK:BSA conjugate [8], 0.000386 s⁻¹. Besides, the kon is 692000 M⁻¹ s⁻¹ with cSNK:BSA conjugate [5], 692000 M⁻¹ s⁻¹ with cSNK:BSA conjugate [8] and 4.44e+06 M⁻¹ s⁻¹ in the assay with cSNK:BSA conjugate [9].

A word on the Kd: it is the free concentration of one partner at which half of the binding sites on the other are occupied at equilibrium, for simple one-to-one binding. The low end stands for tighter binding, the high end for weaker binding. As usually defined, the koff is a measure of how fast the partners let go of each other. Read a high koff as a short-lived complex. A word on the kon: it is a measure of how fast the partners come together. A higher kon goes with faster complex formation.
